In patent US20230088461A1 (NANJING LEGEND BIOTECH, published 2023):

What was measured:
[1] = target: T1, recombinant human GPC3 (human, UniProt P51654 25-559, limits assumed); experiment: SPR (Biacore), antibody as ligand, recombinant human GPC3 as analyte, 1:1 Langmuir model
T1 construct: also called hGPC3
Experimental: The binding kinetics of the antibodies to recombinant human GPC3 were measured by the surface plasmon resonance (SPR) (e.g., Biacore). Binding rate (Kₐ) and dissociation rates (Kd) were calculated using a simple one-to-one Langmuir binding model (Biacore Evaluation Software). The equilibrium dissociation constant (KD) is calculated as the ratio Kd/Kₐ.

[2] = target: T2, mouse GPC3 on SK-HEP-1-muGPC3 cells (mouse, UniProt Q8CFZ4 25-553); experiment: flow cytometry on SK-HEP-1-muGPC3 cells, PE anti-mouse IgG Fc; also: test concentration or dose not given here
T2 construct: whole, on cells
T2 sequence (Q8CFZ4 25-553 limits assumed): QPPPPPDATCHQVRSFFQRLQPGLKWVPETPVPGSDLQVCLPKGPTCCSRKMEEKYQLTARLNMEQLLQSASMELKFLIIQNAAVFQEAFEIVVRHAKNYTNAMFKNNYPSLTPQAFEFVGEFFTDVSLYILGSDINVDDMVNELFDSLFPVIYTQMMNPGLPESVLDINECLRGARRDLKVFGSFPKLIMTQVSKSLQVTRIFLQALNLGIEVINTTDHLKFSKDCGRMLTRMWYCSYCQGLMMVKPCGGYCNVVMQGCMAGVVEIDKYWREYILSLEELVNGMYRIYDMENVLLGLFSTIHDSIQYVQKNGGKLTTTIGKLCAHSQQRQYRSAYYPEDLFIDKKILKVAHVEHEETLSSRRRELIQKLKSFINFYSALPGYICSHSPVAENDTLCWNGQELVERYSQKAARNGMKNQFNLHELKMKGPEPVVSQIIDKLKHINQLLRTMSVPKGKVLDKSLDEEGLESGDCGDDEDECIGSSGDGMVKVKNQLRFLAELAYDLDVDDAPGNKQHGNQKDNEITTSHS

[3] = target: T3, human GPC3 on SK-HEP-1-huGPC3 cells (human, UniProt P51654 25-554); experiment: flow cytometry on SK-HEP-1-huGPC3 cells, PE anti-mouse IgG Fc; also: test concentration or dose not given here
T3 construct: whole, on cells

[4] = target: T4, cynomolgus monkey GPC3 on SK-HEP-1-cmGPC3 cells (cynomolgus monkey, UniProt A0A2K5VK50 24-553); experiment: flow cytometry on SK-HEP-1-cmGPC3 cells, PE anti-mouse IgG Fc; also: test concentration or dose not given here
T4 construct: whole, on cells

- Kd [1]: 12.6 nM
- koff [1]: 0.000465 s⁻¹
- kon [1]: 36900 M⁻¹ s⁻¹
- Positive population, % [2]: 83.9%
- Positive population, % [3]: 91.3%
- Positive population, % [4]: 22.3%
B1: LAb19310 (antibody, V domains shown)
VH: EVQLQQSGPELVKPGPSLKISCKASGYSFTVSPMTWVKQSHGKNLEWIGLIHPYNGDTTYNQKFKGKATLTVDKSSSTAYMELLSLTSEDSAVYYCARWGNYYPYAMDYWGQGTSVTVSS
VL: DIVMTQSQKFMSTSVGDRVSITCKASQNVRSTVAWYQQKPGQSPKALIYLTSNRHTGVPDRFTGSGSGTDFTLTISNVQSEDLADYFCLQHWNYPYTFGGGTKLEIK
notes: Mouse monoclonal antibody purified from hybridoma supernatant
